In patent US6613957 (UAB RESEARCH FOUNDATION, dated 2003):

Biological target: T1, human β-globin polypeptide (product of the human β-globin transgene) (human, UniProt P68871 2-147)
T1 construct: Two copies stand in each hemoglobin tetramer (α2β2); also called hβ
Assay: nondenaturing isoelectric focusing of transgenic mouse hemolysate; band excised and its chains identified on a denaturing cellulose acetate strip
Excerpt: Human α and β-globin mRNA detected in lung is the result of incomplete perfusion. Mouse α and β-globin mRNA are also observed in this non-erythroid tissue. (B) Nondenaturing, isoelectric focusing of transgenic mouse hemolysates. Hemolysates of control mouse (lane 1) human (lane 4) and transgenic mouse (lanes 2 and 3) blood were run on a native agarose isoelectric focusing gel and photographed without staining. (C) Denaturing cellulose acetate strip electrophoresis of transgenic mouse hemogobins. Hemoglobins were denatured in alkaline-urea buffer, electrophoresed on cellulose acetate strips, and stained with imido black.
To determine whether complete human hemoglobins were formed, we separated hemolysates of the blood of animals from two different transgenic lines by non-denaturing ioslectric focusing (IEF) (FIG. 14B). The first lane is a mouse control and the last lane is a normal human sample. The predominant band in each of the controls is the major adult hemoglobin, mouse α_2β_2 or human α_2β_2, respectively.

T1 sequence (P68871 2-147 limits assumed): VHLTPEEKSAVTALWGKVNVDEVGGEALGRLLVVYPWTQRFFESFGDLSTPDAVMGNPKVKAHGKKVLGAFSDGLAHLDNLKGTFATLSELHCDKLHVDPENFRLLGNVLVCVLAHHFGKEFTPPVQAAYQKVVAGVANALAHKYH

B1: human α-globin polypeptide (product of the human α1-globin transgene) (other)
chain: not shown
notes: Two copies stand in each hemoglobin tetramer (α2β2); also called hα
  binding result: binds

B2: mouse α-globin polypeptide (endogenous) (other)
chain: not shown
notes: Endogenous chain in the red blood cells of the transgenic mice; also called mα
  binding result: binds
